Source: US20200283475A1

How the values were obtained:
[1] = target: human polyclonal IgG (Gammanorm) (human); assay: pH 6-3 citrate gradient elution; hexamer SEQ ID NO 33 on agarose; peak 1
[2] = target: human polyclonal IgG (Gammanorm) (human); assay: SPR; ratio to reference (the text names Zvar6)
[3] = target: human polyclonal IgG (Gammanorm) (human); assay: SPR, ligand on chip; CIP cycles 0.5 M NaOH
[4] = target: human polyclonal IgG (Gammanorm) (human); assay: pH 6-3 citrate gradient elution; hexamer SEQ ID NO 33 on agarose; peak 2
[5] = target: human polyclonal IgG (Gammanorm) (human); assay: column breakthrough, ligand 9.7 mg/ml; after 24 h 0.5 M NaOH
[6] = target: human polyclonal IgG (Gammanorm) (human); assay: column breakthrough, agarose beads, ligand 9.7 mg/ml, 6 min residence
[7] = target: human polyclonal IgG (Gammanorm) (human); assay: column breakthrough, ligand 9.7 mg/ml; after 24 h 1.0 M NaOH
[8] = target: human polyclonal IgG (Gammanorm) (human); assay: column breakthrough, 1.0 M NaOH; ratio to reference Zvar4
[9] = target: human polyclonal IgG (Gammanorm) (human); assay: column breakthrough; ratio to reference Zvar4
[10] = target: human polyclonal IgG (Gammanorm) (human); assay: column breakthrough, agarose beads, ligand 9.7 mg/ml, 6 min residence; remark: listed apart in the source
[11] = target: human polyclonal IgG (Gammanorm) (human); assay: column breakthrough, agarose beads, ligand […], 6 min residence
[12] = target: human polyclonal IgG (Gammanorm) (human); assay: column breakthrough, agarose beads, ligand 7.2 mg/ml, 6 min residence
[13] = target: human polyclonal IgG (Gammanorm) (human); assay: column breakthrough, ligand 7.2 mg/ml; after 24 h 0.5 M NaOH
[14] = target: human polyclonal IgG (Gammanorm) (human); assay: column breakthrough, ligand […]; after 24 h 0.5 M NaOH
[15] = target: human polyclonal IgG (Gammanorm) (human); assay: column breakthrough, ligand […]; after 24 h 1.0 M NaOH
[16] = target: human polyclonal IgG (Gammanorm) (human); assay: column breakthrough, agarose beads, ligand […], 6 min residence; remark: listed apart in the source
[17] = target: human polyclonal IgG (Gammanorm) (human); assay: column breakthrough, ligand 10.8 mg/ml; after 24 h 0.5 M NaOH
[18] = target: human polyclonal IgG (Gammanorm) (human); assay: column breakthrough, agarose beads, ligand 10.8 mg/ml, 6 min residence
[19] = target: human polyclonal IgG (Gammanorm) (human); assay: SPR; ratio of remaining capacity to reference Zvar1
[20] = target: human polyclonal IgG (Gammanorm) (human); assay: SPR, ligand on chip; signal left after 96-100 CIP cycles 0.5 M NaOH
[21] = target: IgG1 monoclonal antibody (probe molecule in the Biacore kinetics); assay: SPR (Biacore), ligand on CM5 chip, IgG1 mAb as probe
[22] = target: IgG1 monoclonal antibody (probe molecule in the Biacore kinetics); assay: SPR (Biacore), ligand on CM5 chip, IgG1 mAb as probe; exponent read as 10^-5

“Zvar(Q9A,N11E,Q40V,A42K,N43A,L44I)6 (designed binder)” was tested, and the Elution pH [1] was 4.24 pH, the Capacity relative to ref. 100 cycles [2] was 1.3 and the Remaining capacity 100 cycles (%) [3] was 87%. It also gave an Elution pH [4] of 3.81 pH.

“Zvar(N11K,H18K,S33K,D37E,A42R,N43A,L44I,K50R,L51Y)4 with an additional N-terminal cysteine (designed binder)” was tested, and the Remaining IgG capacity Qb10 after six 4 h cycles [5] was 52 mg/mL, the Remaining IgG capacity after six 4 h cycles (%) [5] was 92% and the Initial IgG capacity Qb10 [6] was 62.1 mg/mL. It also gave a Remaining IgG capacity Qb10 after six 4 h cycles [7] of 48.1 mg/mL, a Remaining IgG capacity after six 4 h cycles (%) [7] of 77% and a Capacity retention relative to ref. after six 4 h cycles [8] of 1.44. For the same substance, the Capacity retention relative to ref. after six 4 h cycles [9] was 1.53 and the Initial IgG capacity Qb10 [10] was 56.3 mg/mL.

For “Zvar(Q9A,N11E,Q40V,A42K,N43A,L44I)4 with an additional N-terminal cysteine (designed binder)”, the Initial IgG capacity Qb10 [11] was 56.3 mg/mL, the Initial IgG capacity Qb10 [12] was 49 mg/mL and the Remaining IgG capacity Qb10 after six 4 h cycles [13] was 44.2 mg/mL. The Remaining IgG capacity after six 4 h cycles (%) [13] was 90%, the Capacity retention relative to ref. after six 4 h cycles [8] was 1.67 and the Remaining IgG capacity Qb10 after six 4 h cycles [14] was 53.6 mg/mL. It also gave a Remaining IgG capacity after six 4 h cycles (%) [14] of 95%, a Remaining IgG capacity Qb10 after six 4 h cycles [15] of 56 mg/mL and a Remaining IgG capacity after six 4 h cycles (%) [15] of 93%. For the same substance, the Capacity retention relative to ref. after six 4 h cycles ([9]; ligand content 7.2 mg/ml) was 1.5 and the Initial IgG capacity Qb10 [16] was 60.3 mg/mL.

“Zvar(Q9A,N11K,H18K,D37E,A42R)4 with an additional N-terminal cysteine (designed binder)” showed a Remaining IgG capacity Qb10 after six 4 h cycles [17] of 52.5 mg/mL, a Remaining IgG capacity after six 4 h cycles (%) [17] of 92% and a Capacity retention relative to ref. after six 4 h cycles [9] of 1.3. It also gave an Initial IgG capacity Qb10 [18] of 56.9 mg/mL.

In the case of “Zvar(Q9A,N11E,Q40V,A42K,N43A,L44I)1 (designed binder)”, the Capacity relative to reference [19] is reported as 1.4, the Capacity after 96-100 cycles [20] is reported as 66% and the Kd [21] is reported as 1.07 nM. It also gave a kon [21] of 410000 M⁻¹ s⁻¹ and a koff [22] of 0.000437 s⁻¹.
